From patent publication US20120214174

T1: MUC1-a peptide (AHGVTSAPDTR)
T1 chain: AHGVTSAPDTR

T2: MUC1-b peptide (RPAPGSTAPPA)
T2 chain: RPAPGSTAPPA


Assays:
[1] = biological target: T1, MUC1-a peptide (AHGVTSAPDTR)
[2] = biological target: T2, MUC1-b peptide (RPAPGSTAPPA)
[3] = biological target: endogenous MUC1 protein (Mucin-1)

| Protein | in vitro GalNAc-transferase assay (HPLC of DNS-labelled peptide) [1] | in vitro GalNAc-transferase assay (HPLC of DNS-labelled peptide) [2] | Western blot of MUC1 in stable HeLa transformants (band shift by O-glycosylation) [3] |
| --- | --- | --- | --- |
| recombinant wild-type GALNT6 protein without a signal peptide (codons 35-622), His-tagged (protein) EEATEKPWLKSLVSRKDHVLDLMLEAMNNLRDSMPKLQIRAPEAQQTLFSINQSCLPGFYTPAELKPFWERPPQDPNAPGADGKAFQKSKWTPLETQEKEEGYKKHCFNAFASDRISLQRSLGPDTRPPECVDQKFRRCPPLATTSVIIVFHNEAWSTLLRTVYSVLHTTPAILLKEIILVDDASTEEHLKEKLEQYVKQLQVVRVVRQEERKGLITARLLGASVAQAEVLTFLDAHCECFHGWLEPLLARIAEDKTVVVSPDIVTIDLNTFEFAKPVQRGRVHSRGNFDWSLTFGWETLPPHEKQRRKDETYPIKSPTFAGGLFSISKSYFEHIGTYDNQMEIWGGENVEMSFRVWQCGGQLEIIPCSVVGHVFRTKSPHTFPKGTSVIARNQVRLAEVWMDSYKKIFYRRNLQAAKMAQEKSFGDISERLQLREQLHCHNFSWYLHNVYPEMFVPDLTPTFYGAIKNLGTNQCLDVGENNRGGKPLIMYSCHGLGGNQYFEYTTQRDLRHNIAKQLCLHVSKGALGLGSCHFTGKNSQVPKDEEWELAQDQLIRNSGSGTCLTSQDKKPAMAPCNPSDPHQLWLFV | WT-GALNT6 rapidly O-glycosylated MUC1 peptides in 10-min incubation | WT-GALNT6 rapidly O-glycosylated MUC1 peptides in 10-min incubation |  |
| recombinant GALNT6 E382Q mutant protein (protein) EEATEKPWLKSLVSRKDHVLDLMLEAMNNLRDSMPKLQIRAPEAQQTLFSINQSCLPGFYTPAELKPFWERPPQDPNAPGADGKAFQKSKWTPLETQEKEEGYKKHCFNAFASDRISLQRSLGPDTRPPECVDQKFRRCPPLATTSVIIVFHNEAWSTLLRTVYSVLHTTPAILLKEIILVDDASTEEHLKEKLEQYVKQLQVVRVVRQEERKGLITARLLGASVAQAEVLTFLDAHCECFHGWLEPLLARIAEDKTVVVSPDIVTIDLNTFEFAKPVQRGRVHSRGNFDWSLTFGWETLPPHEKQRRKDETYPIKSPTFAGGLFSISKSYFEHIGTYDNQMEIWGGQNVEMSFRVWQCGGQLEIIPCSVVGHVFRTKSPHTFPKGTSVIARNQVRLAEVWMDSYKKIFYRRNLQAAKMAQEKSFGDISERLQLREQLHCHNFSWYLHNVYPEMFVPDLTPTFYGAIKNLGTNQCLDVGENNRGGKPLIMYSCHGLGGNQYFEYTTQRDLRHNIAKQLCLHVSKGALGLGSCHFTGKNSQVPKDEEWELAQDQLIRNSGSGTCLTSQDKKPAMAPCNPSDPHQLWLFV | mutant-GALNT6 proteins (H271D and E382Q) could not transfer GalNAc to MUC1 peptides even by 16 hours incubation | mutant-GALNT6 proteins (H271D and E382Q) could not transfer GalNAc to MUC1 peptides even by 16 hours incubation |  |
| recombinant GALNT6 H271D mutant protein (protein) EEATEKPWLKSLVSRKDHVLDLMLEAMNNLRDSMPKLQIRAPEAQQTLFSINQSCLPGFYTPAELKPFWERPPQDPNAPGADGKAFQKSKWTPLETQEKEEGYKKHCFNAFASDRISLQRSLGPDTRPPECVDQKFRRCPPLATTSVIIVFHNEAWSTLLRTVYSVLHTTPAILLKEIILVDDASTEEHLKEKLEQYVKQLQVVRVVRQEERKGLITARLLGASVAQAEVLTFLDADCECFHGWLEPLLARIAEDKTVVVSPDIVTIDLNTFEFAKPVQRGRVHSRGNFDWSLTFGWETLPPHEKQRRKDETYPIKSPTFAGGLFSISKSYFEHIGTYDNQMEIWGGENVEMSFRVWQCGGQLEIIPCSVVGHVFRTKSPHTFPKGTSVIARNQVRLAEVWMDSYKKIFYRRNLQAAKMAQEKSFGDISERLQLREQLHCHNFSWYLHNVYPEMFVPDLTPTFYGAIKNLGTNQCLDVGENNRGGKPLIMYSCHGLGGNQYFEYTTQRDLRHNIAKQLCLHVSKGALGLGSCHFTGKNSQVPKDEEWELAQDQLIRNSGSGTCLTSQDKKPAMAPCNPSDPHQLWLFV | mutant-GALNT6 proteins (H271D and E382Q) could not transfer GalNAc to MUC1 peptides even by 16 hours incubation | mutant-GALNT6 proteins (H271D and E382Q) could not transfer GalNAc to MUC1 peptides even by 16 hours incubation |  |
| HA-tagged wild-type GALNT6 protein stably expressed in HeLa cells (pCAGGS-GALNT6-HA) (protein) MRLLRRRHMPLRLAMVGCAFVLFLFLLHRDVSSREEATEKPWLKSLVSRKDHVLDLMLEAMNNLRDSMPKLQIRAPEAQQTLFSINQSCLPGFYTPAELKPFWERPPQDPNAPGADGKAFQKSKWTPLETQEKEEGYKKHCFNAFASDRISLQRSLGPDTRPPECVDQKFRRCPPLATTSVIIVFHNEAWSTLLRTVYSVLHTTPAILLKEIILVDDASTEEHLKEKLEQYVKQLQVVRVVRQEERKGLITARLLGASVAQAEVLTFLDAHCECFHGWLEPLLARIAEDKTVVVSPDIVTIDLNTFEFAKPVQRGRVHSRGNFDWSLTFGWETLPPHEKQRRKDETYPIKSPTFAGGLFSISKSYFEHIGTYDNQMEIWGGENVEMSFRVWQCGGQLEIIPCSVVGHVFRTKSPHTFPKGTSVIARNQVRLAEVWMDSYKKIFYRRNLQAAKMAQEKSFGDISERLQLREQLHCHNFSWYLHNVYPEMFVPDLTPTFYGAIKNLGTNQCLDVGENNRGGKPLIMYSCHGLGGNQYFEYTTQRDLRHNIAKQLCLHVSKGALGLGSCHFTGKNSQVPKDEEWELAQDQLIRNSGSGTCLTSQDKKPAMAPCNPSDPHQLWLFV |  |  | In the cells with WT-GALNT6 (clone no. 101, 110 and 304), the highest molecular weight of MUC1 protein (>250 kDa) was observed |
| HA-tagged GALNT6 H271D mutant stably expressed in HeLa cells (pCAGGS-GALNT6 (H271D)-HA) (protein) MRLLRRRHMPLRLAMVGCAFVLFLFLLHRDVSSREEATEKPWLKSLVSRKDHVLDLMLEAMNNLRDSMPKLQIRAPEAQQTLFSINQSCLPGFYTPAELKPFWERPPQDPNAPGADGKAFQKSKWTPLETQEKEEGYKKHCFNAFASDRISLQRSLGPDTRPPECVDQKFRRCPPLATTSVIIVFHNEAWSTLLRTVYSVLHTTPAILLKEIILVDDASTEEHLKEKLEQYVKQLQVVRVVRQEERKGLITARLLGASVAQAEVLTFLDADCECFHGWLEPLLARIAEDKTVVVSPDIVTIDLNTFEFAKPVQRGRVHSRGNFDWSLTFGWETLPPHEKQRRKDETYPIKSPTFAGGLFSISKSYFEHIGTYDNQMEIWGGENVEMSFRVWQCGGQLEIIPCSVVGHVFRTKSPHTFPKGTSVIARNQVRLAEVWMDSYKKIFYRRNLQAAKMAQEKSFGDISERLQLREQLHCHNFSWYLHNVYPEMFVPDLTPTFYGAIKNLGTNQCLDVGENNRGGKPLIMYSCHGLGGNQYFEYTTQRDLRHNIAKQLCLHVSKGALGLGSCHFTGKNSQVPKDEEWELAQDQLIRNSGSGTCLTSQDKKPAMAPCNPSDPHQLWLFV |  |  | in those with mock (clone no. 001, 003 and 006) or H271D (clone no. 102, 212 and 114) the shifted band was not observed |
